The target of assay [1] is T1, CidB (CidB^wPip, wPa_0283), co-expressed with His6-CidA from the full operon in E. coli (Wolbachia pipientis, wPip strain).
T1 construct: also called toxin
T1 chain: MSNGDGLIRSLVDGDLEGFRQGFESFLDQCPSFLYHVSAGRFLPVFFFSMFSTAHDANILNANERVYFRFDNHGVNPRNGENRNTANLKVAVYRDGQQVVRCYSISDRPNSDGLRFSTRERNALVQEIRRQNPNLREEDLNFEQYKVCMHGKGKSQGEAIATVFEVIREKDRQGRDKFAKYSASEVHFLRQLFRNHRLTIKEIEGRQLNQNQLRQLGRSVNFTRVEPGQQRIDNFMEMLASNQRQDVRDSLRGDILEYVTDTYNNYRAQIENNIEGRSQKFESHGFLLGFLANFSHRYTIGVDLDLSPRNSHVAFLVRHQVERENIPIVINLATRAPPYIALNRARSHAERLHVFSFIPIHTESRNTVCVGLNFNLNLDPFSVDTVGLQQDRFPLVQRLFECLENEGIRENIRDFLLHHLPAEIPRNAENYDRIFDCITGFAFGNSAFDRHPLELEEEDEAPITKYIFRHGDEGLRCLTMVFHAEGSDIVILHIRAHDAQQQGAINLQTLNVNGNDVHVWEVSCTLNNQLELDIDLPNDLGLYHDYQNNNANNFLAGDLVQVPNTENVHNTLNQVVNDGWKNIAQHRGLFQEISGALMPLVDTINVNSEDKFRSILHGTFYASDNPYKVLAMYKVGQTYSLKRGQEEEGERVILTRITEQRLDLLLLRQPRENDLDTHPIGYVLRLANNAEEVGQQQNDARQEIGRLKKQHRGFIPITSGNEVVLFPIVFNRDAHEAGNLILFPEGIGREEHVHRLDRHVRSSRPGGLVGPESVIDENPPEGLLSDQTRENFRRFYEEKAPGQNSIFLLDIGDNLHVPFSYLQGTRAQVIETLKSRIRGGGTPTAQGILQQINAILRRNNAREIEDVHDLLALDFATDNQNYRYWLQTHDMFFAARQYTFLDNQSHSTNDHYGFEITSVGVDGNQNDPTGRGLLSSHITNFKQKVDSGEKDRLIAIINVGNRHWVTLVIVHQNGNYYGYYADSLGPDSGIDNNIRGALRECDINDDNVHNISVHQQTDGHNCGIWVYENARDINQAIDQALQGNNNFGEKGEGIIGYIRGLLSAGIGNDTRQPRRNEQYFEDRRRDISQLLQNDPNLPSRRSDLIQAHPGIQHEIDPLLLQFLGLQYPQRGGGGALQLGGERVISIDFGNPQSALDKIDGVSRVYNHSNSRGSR
In words: summary of the pulldown experiments of Example 2.

Assay [2] deals with T2, CinB (CinB^wPip, wPa_0295), co-expressed with His6-CinA from the full operon in E. coli (Wolbachia pipientis, wPip strain).
T2 construct: also called putative DUF1703 nuclease
T2 chain: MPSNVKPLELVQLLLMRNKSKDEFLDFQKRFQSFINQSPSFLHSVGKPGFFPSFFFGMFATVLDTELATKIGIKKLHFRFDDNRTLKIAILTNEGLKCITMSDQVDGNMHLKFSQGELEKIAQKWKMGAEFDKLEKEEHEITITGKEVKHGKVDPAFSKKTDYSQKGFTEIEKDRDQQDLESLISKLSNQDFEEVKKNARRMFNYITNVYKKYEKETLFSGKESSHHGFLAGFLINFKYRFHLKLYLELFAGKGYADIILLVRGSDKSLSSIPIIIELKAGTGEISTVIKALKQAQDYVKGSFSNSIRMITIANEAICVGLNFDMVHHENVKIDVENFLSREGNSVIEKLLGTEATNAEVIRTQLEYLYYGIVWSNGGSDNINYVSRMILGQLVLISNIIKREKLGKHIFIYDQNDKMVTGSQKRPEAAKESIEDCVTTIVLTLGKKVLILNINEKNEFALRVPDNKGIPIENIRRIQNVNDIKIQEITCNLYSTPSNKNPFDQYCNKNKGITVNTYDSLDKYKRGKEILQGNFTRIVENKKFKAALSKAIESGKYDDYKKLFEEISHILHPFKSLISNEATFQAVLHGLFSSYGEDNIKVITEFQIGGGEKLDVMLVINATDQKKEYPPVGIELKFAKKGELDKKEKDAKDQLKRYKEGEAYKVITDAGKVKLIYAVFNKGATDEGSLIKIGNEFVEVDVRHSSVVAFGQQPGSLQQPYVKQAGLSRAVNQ
In words: summary of the pulldown experiments of Example 2.

B1: His6-CidA (CidA^wPip, wPa_0282, N-terminally His6-tagged) (other)
chain: MPTQKELRDTMSKKLQEAIKHPDPAVVAGRKSAIKRWVGVLQDNFMEHIKYFKGDKLKFLHNVFQDEGCWSGVRLDNAALGQRFTEEKIGGIDNPLRKYEMACSYCVVDKIHPLFQKRFESYRNKFPPGAFDGKTETEFGKYVRNSLLDSIKRKGPVFDFWIDRESGELKKYDAVEGFDSAVKFKWSEGVEYFYNHLKEEDKEKKLTEAILALSRVQSVEKDAPILDFCVNKIVDKDTLLQKLSQKDKGVYSLFAELIESCFFDTVHDLVQCWCYKEVSAGGDHSEKIFSQRDYELFLSSLSDTMLKNPELSVQARSLIMEFWECGSLYQYRKAAVNTSNYTVPTSGVFAELIVNWRREDIYKTDEEKEIEKKEILDMMSFAKDCFPEKFELFKKLIIRDLRLCGREGKRVNVDYGLFAEELFSELEKTILPPGPVGDGPCSNLRSRSKAHGSKKTTLPVDDSPQSELGTPSVSGVSSYKKKSVFTLSGNK
notes: also called His6-tagged CidA; antidote
B1: the binding result in assay [1] is recorded as “binds”.

B2: His6-CinA (CinA^wPip, wPa_0294, His6-tagged) (other)
chain: MESGLDHNYNKILDILKGAIKGDDNQVKARKHLRVERWLRAYIQLIEDFDEEKLIFFSDIFSDNSCWDGIKLKNKAVGERLTEEKNKNGKENPLDLADRYYLACKYCLEDKIPGLFEQVFMRFKRSAFEEDGSDDDLRRELLENIEETSPIEAFWSFLIDKQIGKLNEYKSVEGLQKSIQINSNKNWEEGIEFFYNKLHNDSSISSQDKDDLLIEAALSAVKGYKEVDTIEFCLSKMDDEQKKKLLDRDYKENTYYAVLNVLVGQYYFDSFMELSRLCSQIECERYTTFLSSLSDQVLKNPDLSEETKKCMMNVWERIIKLKTQDRGEQSISSIFVDYSVTYTIANLIVDPSRQGVSKEEILGKILKHVKEMSGEEMIKVKDSVLSKIQLFHGGKKLQLGEQVFSKLAQEASKESILREAGDTLPQSSLSTTDTPYNIKSLSHSK
With B2, the binding result in assay [2] is on record as “binds”.

Source of the values: patent publication US20240164355A1 (VANDERBILT UNIVERSITY, published 2024).
